Km data for one protein are collected here from publication PMC7081238, “BrtB is an O-alkylating enzyme that generates fatty acid-bartoloside esters” (Nature Communications, 2020).

Substrate in the series: C#CCCCCC(=O)O
As to the kind of experiment: purified protein. The class given is biochemical, Synechocystis salina. Conditions: co-substrate bartoloside G (5) 100 μM, 20 mM HEPES, 50 mM NaCl, 10 mM MgCl2, 5 mM CaCl2, pH 8.0, 37 °C, standard error, n = 3.

B1: NStrep-BrtB (Synechocystis salina LEGE 06099) (protein)
chain: MANPFDVALTNLNSLYSGIPDVPVLQTYNSLNPYDISLTNLNNLSNFVIEPAVLPTAAGTYGPQISEIAFALGGGIITGALADLLSTELGIEIENEALITKFLSFWTPGSDYAFGQDYVEFIQGREGFDTIIGYDPGFNSALAPVQIDFVLGGPRQDFNFFAPLDEPARYVLGDWRTPYYVDNDIQSEGLNEFMYVSLFTLNPDEFSPDNAENHRIQLYGSLDNYYFVPTTVVIDGSALDPSLPSIPVPGTEIYYKTGQVFADLIAIVPFQDPNDPNLISAWIDFEGYLPPEQADLSGQTANPLLSGSPLLQLGYEGIDMGTATALAPDGDIYVAGSTSSLLGPFPRGGSDNFIARYNDDGSLEWIVQFGSTEFDIITDIVSDSAGNVYATGWTRGNVETGFGLAPGVQDNWVAKFDANGSQLWVEQFTIDGYLDRSMGIALDEVNGRIHLTGHSNTDGSVADTNDPAIVPNGNVVTWIAGFDANTGAEDYRNVFEVAQTSNSRGRIDEGFGIDVDDAGNVFSTGWAGENAYDVYLVKSDTDGAVLWTKSFGTGSNATQSYAWDVASDGTNAYILGWTQGELNTFRDQIPPTDEFAGNATAPLTPQNAYQGGTFDAFVAAYDTDGTELWTWHVGGTGDDGTFFGKIVAAGDFVYATGYTDGFIGTLGGSNAGDYDAWIGKFDKLTGQTAWIQQIGSTKLDYATGISVDGDDIFVTGFTEGSLGGLNGGASDAWVAKLNQDGALEAFNVSAPIAPPAPFAPPAPLTPPAPPAPDLSSLQSLGSTPQPTYPALGDSYGTNPFGTQPTQPTYDLSSMYQNAYYGGFGGYSGYGY
notes: N-terminal Strep-Tag, pET-51b, E. coli BL21 (DE3) Rosetta; cloning primers imply N-terminus MANPF and C-terminus GYGY; two protein preparations pooled 1:1
In the case of B1, the Km (commonly the substrate concentration at which the rate is half of its maximum) came to 234 ± 41 µM.
